Here are results for 36 sequences from the supplement of paper PMC10567573.

The nature of this series: protein stability index of a GFP-peptide fusion (GPS, HEK-293T) (PSI 1-6); higher = more stable. Conditions: c terminus: a fixed tail appended.

± gives the standard deviation.
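Further: 24-mer peptide tiles fused after GFP, lentivirally expressed, FACS-sorted into six equal bins by GFP/DsRed ratio, decoded by Illumina sequencing, PSI is the read-weighted mean bin number.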

Regarding IFIARRSLLDELLEVDHIRTIYHM [SOAT1], the protein stability index runs as follows: (treatment: DMSO) 2.8 ± 0.58; (treatment: MLN4924 1 uM, 8 h) 2.66 ± 0.75.

In turn, ATIFALSTMTSSVQIYNLSQNIQE [ATL3] came in with a protein stability index (treatment: DMSO) of 3.03 ± 0.76 and a protein stability index (treatment: MLN4924 1 uM, 8 h) of 3.27 ± 0.71.

With LQRLGELQSELAGVADFSATYLRC [INTS4], the protein stability index reads like this: (treatment: DMSO) 2.72 ± 0.22; (treatment: MLN4924 1 uM, 8 h) 2.93 ± 0.34.

For ALEQGGLRAATMSAVEAATCRAKE [PYCR3], the protein stability index reads like this: (treatment: DMSO) 4.68 ± 0.3; (treatment: MLN4924 1 uM, 8 h) 4.96 ± 0.14.

Take IVFPEKLNGSVLPGSGAPARLLCR [ADAMTS4]: the protein stability index is, setting by setting: (treatment: DMSO) 2.87 ± 0.26; (treatment: MLN4924 1 uM, 8 h) 2.59 ± 0.4.

With PQFTGILQLLQSRTSRKFLACRLT [INTS3], the protein stability index is, setting by setting: (treatment: DMSO) 2.18 ± 0.41; (treatment: MLN4924 1 uM, 8 h) 2.16 ± 0.27.

In the case of HNCQLHRISFCADDKTDKRIFTFI [GULP1], the protein stability index runs as follows: (treatment: DMSO) 2.61 ± 0.36; (treatment: MLN4924 1 uM, 8 h) 2.4 ± 0.52.

Take CHEEVYAGSHQYPGRGVYLLKFDN [ACBD3]: the protein stability index turned out to be 2 ± 0.64 (treatment: DMSO) and 2.16 ± 0.8 (treatment: MLN4924 1 uM, 8 h).

GALWGLQAQAVQTEQAVALLRDRT [SCARA5]: the protein stability index by setting is: (treatment: DMSO) 3.07 ± 0.23; (treatment: MLN4924 1 uM, 8 h) 3.03 ± 0.31.

For RFRDFVDALEDSLEEVAVQQTGDD [PBXIP1], the protein stability index is, setting by setting: (treatment: DMSO) 4.87 ± 0.44; (treatment: MLN4924 1 uM, 8 h) 4.9 ± 0.27.

On to DAAHPTNVQRLAEPSQMLKHAVVN [CTNNB1], for which the protein stability index is 4.62 ± 0.19 (treatment: DMSO) and 4.62 ± 0.15 (treatment: MLN4924 1 uM, 8 h).

Regarding RYLADLLPSVFGSLRDSGYFYDPI [RSPH3], the protein stability index was determined as 2.55 ± 0.49 (treatment: DMSO) and 2.6 ± 0.66 (treatment: MLN4924 1 uM, 8 h).

As to PVHLVDKLPLPIALRSHLKSFSMA [RAB40B], the protein stability index (treatment: DMSO) turned out to be 2.46 ± 0.2 and the protein stability index (treatment: MLN4924 1 uM, 8 h) is 2.27 ± 0.2.

Regarding ENCLDAKSTSIQVIVKEGGLKLIQ [MLH1], the protein stability index reads like this: (treatment: DMSO) 2.7 ± 0.37; (treatment: MLN4924 1 uM, 8 h) 2.94 ± 0.22.

As for PLQDFPNSISSDKEATVPCTEILT [MIA2], the protein stability index runs as follows: (treatment: DMSO) 4.55 ± 0.24; (treatment: MLN4924 1 uM, 8 h) 4.54 ± 0.24.

Take DERTHRSDRPFKCNQCGKCFIQSS [ZNF8]: the protein stability index by setting is: (treatment: DMSO) 2.98 ± 0.42; (treatment: MLN4924 1 uM, 8 h) 3.25 ± 0.47.

In turn, QQVPMPPGQEAQRVVCGIDSSMIL [NEK8] returned a protein stability index (treatment: DMSO) of 3.39 ± 0.29 and a protein stability index (treatment: MLN4924 1 uM, 8 h) of 3.5 ± 0.33.

For EAKAVGLISHVLEQNQEGDAAYRK [AUH], the protein stability index is 5.22 ± 0.22 (treatment: DMSO) and 5.18 ± 0.28 (treatment: MLN4924 1 uM, 8 h).

In the case of SATALYRTDYSGRGELSARQMHLA [RAD51], the protein stability index is 3.26 ± 0.19 (treatment: DMSO) and 3.33 ± 0.21 (treatment: MLN4924 1 uM, 8 h).

In the case of EAVTCGNTEVPARNLYAYIQKLTQ [PTPRD], the protein stability index amounted to 2.81 ± 0.19 (treatment: DMSO) and 2.96 ± 0.36 (treatment: MLN4924 1 uM, 8 h).

Turning to RSELVEGCGWRCPEHGDRVAELFC [TRIM14], the protein stability index runs as follows: (treatment: DMSO) 2.86 ± 0.12; (treatment: MLN4924 1 uM, 8 h) 3.04 ± 0.36.

In the case of SSVECYNLETNEWRYVSSLPQPLA [KLHL14], the protein stability index by setting is: (treatment: DMSO) 2.6 ± 0.19; (treatment: MLN4924 1 uM, 8 h) 2.92 ± 0.24.

For the sequence RGGSLLAGGGGFGGGSLSGGGGSR [KRT15], the protein stability index reads like this: (treatment: DMSO) 3.32 ± 1.1; (treatment: MLN4924 1 uM, 8 h) 3.95 ± 0.34.

Turning to CAKMEKDGYGMTPLLSASVTGHTN [FEM1C], the protein stability index runs as follows: (treatment: DMSO) 3.58 ± 0.26; (treatment: MLN4924 1 uM, 8 h) 3.55 ± 0.11.

Take RNLDASPTYKGLLMSLQNQLKESK [CEP70]: the protein stability index is 3.19 ± 0.083 (treatment: DMSO) and 3.36 ± 0.25 (treatment: MLN4924 1 uM, 8 h).

In the case of ELRFLLVYLHGDDHQDSDEFCRNT [FAF2], the protein stability index came out at 2.29 ± 0.23 (treatment: DMSO) and 2.43 ± 0.32 (treatment: MLN4924 1 uM, 8 h).

As for KRTIIPTLVEAIKEQDGREVDWEY [DFFB], the protein stability index by setting is: (treatment: DMSO) 4.14 ± 0.11; (treatment: MLN4924 1 uM, 8 h) 4.36 ± 0.42.

Sequence EEAEWESINVLLMMHGLKPLSLVK [CEP70] yielded a protein stability index (treatment: DMSO) of 2.36 ± 0.66 and a protein stability index (treatment: MLN4924 1 uM, 8 h) of 2.31 ± 0.35.

VRLQERTSGGLLSEAPNEKLFFVD [NOP53]: the protein stability index by setting is: (treatment: DMSO) 3.5 ± 0.32; (treatment: MLN4924 1 uM, 8 h) 3.34 ± 0.33.

With VTLNFNVPGEFKQDVTVVGSAGRL [GFOD1], the protein stability index (treatment: DMSO) turned out to be 2.23 ± 0.74 and the protein stability index (treatment: MLN4924 1 uM, 8 h) is 2.15 ± 0.37.

Consider STHELEKKELEENFEKLRLSLQDQ [MTUS2], for which the protein stability index reads like this: (treatment: DMSO) 5.43 ± 0.14; (treatment: MLN4924 1 uM, 8 h) 5.33 ± 0.12.

Take IWFRVPYSIISLLLKDKVRERIQI [PTPN9]: the protein stability index stood at 2.56 ± 0.65 (treatment: DMSO) and 2.77 ± 1.5 (treatment: MLN4924 1 uM, 8 h).

Consider NYEKLSRGLRYYYDKNIIHKTAGK [ETS1], for which the protein stability index was 2.69 ± 0.15 (treatment: DMSO) and 2.89 ± 0.43 (treatment: MLN4924 1 uM, 8 h).

As to KDTDLARVRRFQVVEVTKGILEHV [M1AP], the protein stability index was 2.55 ± 0.47 (treatment: DMSO) and 2.86 ± 0.56 (treatment: MLN4924 1 uM, 8 h).

For KQLVSPAAALLSNTTCQTENRLSV [PTGFR], the protein stability index runs as follows: (treatment: DMSO) 3.74 ± 0.25; (treatment: MLN4924 1 uM, 8 h) 3.99 ± 0.2.

MRLSSSPPRGPQQLSSFGSVDWLS [VENTX] showed a protein stability index (treatment: DMSO) of 2.99 ± 0.059 and a protein stability index (treatment: MLN4924 1 uM, 8 h) of 3.15 ± 0.3.
